One variant from IntAct's records for PubMed 22916032 can be followed below.

B1: U3 small nucleolar RNA-associated protein 4 homolog (Homo sapiens), Q969X6 (parent)
chain: MGEFKVHRVRFFNYVPSGIRCVAYNNQSNRLAVSRTDGTVEIYNLSANYFQEKFFPGHESRATEALCWAEGQRLFSAGLNGEIMEYDLQALNIKYAMDAFGGPIWSMAASPSGSQLLVGCEDGSVKLFQITPDKIQFERNFDRQKSRILSLSWHPSGTHIAAGSIDYISVFDVKSGSAVHKMIVDRQYMGVSKRKCIVWGVAFLSDGTIISVDSAGKVQFWDSATGTLVKSHLIANADVQSIAVADQEDSFVVGTAEGTVFHFQLVPVTSNSSEKQWVRTKPFQHHTHDVRTVAHSPTALISGGTDTHLVFRPLMEKVEVKNYDAALRKITFPHRCLISCSKKRQLLLFQFAHHLELWRLGSTVATGKNGDTLPLSKNADHLLHLKTKGPENIICSCISPCGSWIAYSTVSRFFLYRLNYEHDNISLKRVSKMPAFLRSALQILFSEDSTKLFVASNQGALHIVQLSGGSFKHLHAFQPQSGTVEAMCLLAVSPDGNWLAASGTSAGVHVYNVKQLKLHCTVPAYNFPVTAMAIAPNTNNLVIAHSDQQVFEYSIPDKQYTDWSRTVQKQGFHHLWLQRDTPITHISFHPKRPMHILLHDAYMFCIIDKSLPLPNDKTLLYNPFPPTNESDVIRRRTAHAFKISKIYKPLLFMDLLDERTLVAVERPLDDIIAQLPPPIKKKKFGT
partner: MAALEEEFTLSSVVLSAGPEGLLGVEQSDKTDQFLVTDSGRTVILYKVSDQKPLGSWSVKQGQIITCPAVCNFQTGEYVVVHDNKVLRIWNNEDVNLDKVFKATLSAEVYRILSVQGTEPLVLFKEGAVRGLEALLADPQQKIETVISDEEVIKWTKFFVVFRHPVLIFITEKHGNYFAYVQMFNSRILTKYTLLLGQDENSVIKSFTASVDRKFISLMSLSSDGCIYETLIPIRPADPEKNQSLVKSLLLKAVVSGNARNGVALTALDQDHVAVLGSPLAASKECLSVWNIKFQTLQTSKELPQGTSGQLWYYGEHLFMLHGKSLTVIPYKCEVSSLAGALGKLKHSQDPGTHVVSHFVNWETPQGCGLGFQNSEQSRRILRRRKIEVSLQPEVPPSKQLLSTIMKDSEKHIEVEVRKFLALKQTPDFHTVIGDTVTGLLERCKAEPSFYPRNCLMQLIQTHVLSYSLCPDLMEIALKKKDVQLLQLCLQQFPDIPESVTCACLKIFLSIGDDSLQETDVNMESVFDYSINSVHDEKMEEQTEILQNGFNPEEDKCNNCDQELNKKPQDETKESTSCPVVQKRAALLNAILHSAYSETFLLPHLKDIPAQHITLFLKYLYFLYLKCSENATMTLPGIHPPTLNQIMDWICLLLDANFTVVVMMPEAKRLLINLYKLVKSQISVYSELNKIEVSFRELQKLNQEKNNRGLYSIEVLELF

The variants in the experiment derive from B1. As to conditions: with nol11_human NOL11, Q9H8H0.
As to R565W, the “effect of a mutation on the interaction” value was “decreasing interaction strength”.
